Laboratory results published in the supplement of paper PMC9170038.

Test system: MS2 coat protein
Assay: apparent KD of MS2 coat protein; designed switch direction (-1 OFF switch, 1 ON switch): -1; higher = weaker reporter binding
Summary of the method: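 The apparent KD reported per design is the median over clusters of curve fits to normalised cluster fluorescence. The RNA switches were transcribed on Illumina chips by stalled E. coli RNA polymerase. SNAP-549-labelled MS2 coat protein was titrated from 0.7 or 1.5 nM, doubling up to 3 µM, in Tris-HCl pH 7.5 buffer containing KCl, MgCl2, BSA, DTT, tRNA and Tween-20, with no input, 200 uM small-molecule ligand, or an oligonucleotide input.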

[1] = input ligand: microRNA oligo, concentration not stated
[2] = Eterna round: R95, input ligand: microRNA oligo, concentration not stated
[3] = Eterna round: R95, input ligand: FMN 200 uM
[4] = Eterna round: R95, input ligand: none

Sequence | apparent KD of MS2 coat protein (input ligand: FMN 200 uM) [nM] | apparent KD of MS2 coat protein [1] [nM] | apparent KD of MS2 coat protein (input ligand: none) [nM] | apparent KD of MS2 coat protein [2] [nM] | apparent KD of MS2 coat protein [3] [nM] | apparent KD of MS2 coat protein [4] [nM]
GGUGGACAUGAGGAUCACCCAUGUGAGGAUAUCGGCUAUCUUCUCGCUGUCGGUUGCUCGAGAAGGCACAUUGU [Exclusion 1 V94] (Eterna round: R96, puzzle: Exclusion 1) | 112 | 50.1 | 64.9 | – | – | –
GGUGGACAUGAGGAUCACCCAUGUGAGGAUAUCGGCUAUCUUCUCGCUGUCGGUUGCUCGAGAAGGCACAUUGU [Exclusion 1 V94] (puzzle: Exclusion 1) | – | – | – | 52.2 | – | –
GGUGGACAUGAGGAUCACCCAUGUGAGGAUAUCGGCUGGCUACUCGCUGACGGCUGCUCGAGAAGGCGCAUUGU [Exclusion 1 V88] (puzzle: Exclusion 1) | – | – | – | 41.7 | – | –
GGUGGACAUGAGGAUCACCCAUGUGAGGAUAUCGGCUGGCUAGUGGCGGCUGGCUUCUCGAGAAGGCGCAUAGU [Exclusion 1 V79] (puzzle: Exclusion 1) | – | – | – | 42.2 | – | –
GGUGGGCUAGGAUAUGCUUUGGGAGGGCAUUCCUUCGAUAAACUUGAGGAUCACCCAAGUAGAAGGAGCUUGCC [salish99_ex2_r4_022] (Eterna round: R97, puzzle: Exclusion 2) | 33.9 | – | 15.3 | – | – | –
GGUUAGAUGGUAGGAUAUCCAUAUCGAGUGACCCUUUCAUAACAUGAGGAUCACCCAUGUCGGUGGGAGAAGGGCCGUACGGCG [salish99_ExNG02_R04_011] (Eterna round: R96, puzzle: Exclusion NG 2) | 35.5 | 38.3 | 33.2 | – | – | –
GGUUAGCGAGGAUAUACAUGAGGAUCACCCAUGUGAUCCUAAGGCUGAUCAAGCCUAUGUAGAAGGCGCAAAUC [salish99_ex3_r4_008] (Eterna round: R97, puzzle: Exclusion 3) | 40.1 | – | 227 | – | – | –
GGUUGGCGAGGAUAUACAUGAGGAUCACCCAUGUGAGAGAAACUAGUGAGGUCGAUUGGUAGAAGGCGCUGACG [Mat - Exclusion 3 - Mod of JL D81] (puzzle: Exclusion 3) | – | – | – | 204 | 25.3 | 129
GGUUGGCGAGGAUAUACAUGAGGAUCACCCAUGUGAGAGGAAAAAGUGAGGAAGAAAAGUAGAAGGCGCUGACG [salish99_ex3_r3_002] (puzzle: Exclusion 3) | – | – | – | 60.8 | 142 | 56.7
GGUUGGCGAGGAUAUACAUGAGGAUCACCCAUGUGGUCCUGAGAUAGAAUAGCCCUUUGUAGAAGGCGCGGGUC [salish99_ex3_r4_044] (Eterna round: R97, puzzle: Exclusion 3) | 203 | – | 166 | – | – | –
GGUUGGCGAGGAUAUACAUGAGGAUCACCCAUGUGGUCCUGUGGCUGAUCUAGCCUAUGUAGAAGGCGCAAAUC [salish99_ex3_r4_013] (Eterna round: R97, puzzle: Exclusion 3) | 311 | – | 139 | – | – | –
GUAAACGCAGAGGAUAUAUCAGAUCAAAGCUGCAUAGAAGGCUGCACAUGAGGAUCACCCAUGUGGUCUUUAAG [Mat - Exclusion 6 - JL Mod - D4] (Eterna round: R97, puzzle: Exclusion 6) | 128 | – | 18.4 | – | – | –
GUAAGGCAUCUAGGAUAUAGUAUACGGCGAACAUGAGGAUCACCCAUGUGUCCGAAUGCGGCGAGCUAGAAGGAGAAAUUGCCC [Enuszarima] (Eterna round: R96, puzzle: Exclusion NG 2) | 51.4 | 25.4 | 33.4 | – | – | –
GUACUGACAGGAUAUACAUGAGGAUCACCCAUGUGCCUUAAUGCUACAAAAGUAGCGAGUAGAAGGGUCUGUAC [Omei Ex3 Model Bachelor's Dilema v12] (Eterna round: R97, puzzle: Exclusion 3) | 119 | – | 20.7 | – | – | –
GUAGGGUCAGGAUAUACGGGCGGAGGGAUGUAUUGUAGUUGGUAGAAGGGACAUGAGGAUCACCCAUGUAAGAA [JR_Exclu4_Sub055] (puzzle: Exclusion 4) | – | – | – | 25.3 | – | –
GUAUAACAUGAGGAUCACCCAUGUCAGGAUAUGCGAAUUUCAUCAAAAGAUGAAAUUUGCAGAAGGGACUGUAC [Omei Ex1 A25] (Eterna round: R97, puzzle: Exclusion 1) | 73.9 | – | 67.6 | – | – | –
GUAUAACAUGUAGGAUAUGCAUGGCAAAGCUAUGCAGAAGGACAUGAGGAUCACCCAUGUAAUAGCGUCUGCGUACAGAUGCAA [Mat - Exclusion NG 1 - Mod of JL - D92] (Eterna round: R96, puzzle: Exclusion NG 1) | 165 | 31 | 33.9 | – | – | –

Sequence | apparent KD of MS2 coat protein (input ligand: FMN 200 uM) [nM] | apparent KD of MS2 coat protein [1] [nM] | apparent KD of MS2 coat protein (input ligand: none) [nM] | apparent KD of MS2 coat protein [2] [nM] | apparent KD of MS2 coat protein [3] [nM] | apparent KD of MS2 coat protein [4] [nM]
GUAUAGUGAGUCAGGAUAUUAGAGGACCAGUUUCCUAAGAAGGGACAUGAGGAUCACCCAUGUGCAUAGGACGU [Eternabot (Original) Solution 20] (Eterna round: R97, puzzle: Brourd's mod of Exclusion 4) | 20.7 | – | 23 | – | – | –
GUAUAUGAUGUAGGAUAUACGAGACAUGAGGAUCACCCAUGUGAGGGAAGGAGAAGGAGAAGAGAGUAGAAGGAUAGAGUGUGA [Default title] (Eterna round: R96, puzzle: Exclusion NG 2) | 69.3 | 45.7 | 80.6 | – | – | –
GUAUGGUGAGGAUAUCGCCCUGCCUGCUCAAAGGCGAUGGACGAGAAGGCACAUGAGGAUCACCCAUGUCUGGG [Eternabot (L2) Solution 65] (Eterna round: R97, puzzle: Exclusion 4) | 161 | – | 539 | – | – | –
GUAUGUGGUAAGGAUAUGCAUAAAACCCGCUCCGCAGAAGGUACCACAUGAGGAUCACCCAUGUGAUACCAAUA [EX6 A.16] (Eterna round: R97, puzzle: Exclusion 6) | 16.1 | – | 14.3 | – | – | –
GUAUGUUAUGAGGAUAUCGGUGAACAUACACAUCGAGAAGGCAUGACAUGAGGAUCACCCAUGUCAAGGAUGAA [Exclusion 6 - B - 18:a] (puzzle: Exclusion 6) | – | – | – | 16.9 | 34.1 | 18.3
GUCACAUGGACAUAGGAUCACAUGAGGAUCACCCAUGUGACUAACAAGCUUUUUGCUCGUCUUAUGUCCAUGUGAAG [Stov1/15-A1] (Eterna round: R97, puzzle: Sensor, turn-off variant 1) | 13.2 | – | 11.7 | – | – | –
GUCACAUGGGUGUAGAAUCACAUGAGGAUCACCCAUGUGACUAACAAGCUUUUUGCUCGUCUUAUGUCUAUGUGAAU [Stov1/17-A2] (Eterna round: R97, puzzle: Sensor, turn-off variant 1) | 23.3 | – | 37.2 | – | – | –
GUCACUAGAGGAUAUACAAUGGUAUAUGAUCCUAGAGACAAACAUGAGGAUCACCCAUGUAGAAGGCUAGUAUU [Exclusion 2 - 4] (puzzle: Exclusion 2) | – | – | – | 93.4 | – | –
GUCAGACGAGGAUAUAAAUUUGAUAACAUGAGGAUCACCCAUGUGAUCGAUAGAUCAAAUUUAGAAGGUGUCUGAC [E5/7-B3] (Eterna round: R97, puzzle: Exclusion 5) | 487 | – | 501 | – | – | –
GUCAGCUCGUCAGGAUAUACAUGAGGAUCACCCAUGUGAUCAAUAGCAGCUUCGGCUGCAUACAUGUAGAAGGGACGAGCUGAC [ENG2/6-B1] (Eterna round: R96, puzzle: Exclusion NG 2) | 55.6 | 18.4 | 35.5 | – | – | –
GUCAGCUCGUCAGGAUAUACAUGCGUGCUUCGGCACGAAUUUAAGAUCACAUGAGGAUCACCCAUGUAGAAGGGACGAGCUGAU [ENG2/3-B2] (Eterna round: R96, puzzle: Exclusion NG 2) | 819 | 441 | 600 | – | – | –
GUCAGCUCGUCAGGAUAUAUAUACAUGAGGAUCACCCAUGUAAGAUCAGGCUUCGGCCAAUGUAUAUAGAAGGGACGAGCUGAU [ENG2/11-B2] (Eterna round: R96, puzzle: Exclusion NG 2) | 721 | 458 | 810 | – | – | –
GUCAUCACACAUGGGAUCAACAUGAGGAUCACCCAUGUUGCCAAGUUGUUUGCACGUCUUAUAAUACGUUUUUCGAG [Mod-Jxg] (Eterna round: R97, puzzle: Sensor, turn-off variant 1) | 21.6 | – | 28.2 | – | – | –
GUCAUCUAUCAUGGGAUAAACAUGAGGAUCACCCAUGUAUACAAGUUUUUUGCUCGUCUUAUAAUAAGAUAGAUGAC [Antenna 4 - Jieux - Sensor, turn-off variant 1] (Eterna round: R97, puzzle: Sensor, turn-off variant 1) | 16.6 | – | 16.1 | – | – | –
GUCAUGUUAGGAUAUCAAACAUGUGACUUCGGUCACUGUCCUGAGAAGGAACAUGAGGAUCACCCAUGUUGGAC [Ex4-3: 57] (puzzle: Exclusion 4) | – | – | – | 16.2 | – | –
GUCCGACAUGAGGAUCACCCAUGUGAGGAUAUACGAUUAGCUGCUAGGUAGUUAGUAUGUAGAAGGUGCAUGAA [EX1 #74] (Eterna round: R97, puzzle: Exclusion 1) | 30.1 | – | 17.5 | – | – | –
GUCCUCUUGACAUGAGGAUCACCCAUGUUUUAUUUGUUAACUGAGGAUAUACUCUUAUUUUUUAUGUAGAAGGCAGUUUUGUUC [JR_ExcNG3_Sub023] (Eterna round: R96, puzzle: Exclusion NG 3) | 82.6 | 22 | 26.3 | – | – | –
